Numbering of substitutions follows the chain as printed.
Legend:
[1] = target: Inactivated Rabies Virus Vaccine (Rabipur®, Chiron Behring GmbH & Co.) (rabies virus); test: ELISA, plate coated with 1/500-diluted Rabipur, anti-human IgG Fcγ-HRP detection
[2] = target: CVS-11 rabies virus (rabies virus) (UniProt O92284); test: cell-based or functional assay
[3] = target: Inactivated Rabies Virus Vaccine (Rabipur®, Chiron Behring GmbH & Co.) (rabies virus)

UniProt O92284, sequence (O92284 20-524): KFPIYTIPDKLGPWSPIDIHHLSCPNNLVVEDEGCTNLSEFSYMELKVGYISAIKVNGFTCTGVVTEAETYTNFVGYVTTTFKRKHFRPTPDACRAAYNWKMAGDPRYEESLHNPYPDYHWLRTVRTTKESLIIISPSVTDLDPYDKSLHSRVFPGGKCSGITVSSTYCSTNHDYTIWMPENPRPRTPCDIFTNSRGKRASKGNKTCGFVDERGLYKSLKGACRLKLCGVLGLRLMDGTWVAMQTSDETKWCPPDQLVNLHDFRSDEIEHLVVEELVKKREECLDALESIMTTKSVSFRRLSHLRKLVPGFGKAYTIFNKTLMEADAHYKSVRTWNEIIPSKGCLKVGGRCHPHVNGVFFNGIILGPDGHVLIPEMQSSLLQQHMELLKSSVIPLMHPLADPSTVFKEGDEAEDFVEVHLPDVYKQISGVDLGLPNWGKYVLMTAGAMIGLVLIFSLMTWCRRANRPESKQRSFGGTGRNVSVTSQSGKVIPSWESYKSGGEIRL

B1: Hu1A9-1 (antibody, V domains shown)
VH: QVQLVQSGAEVKKPGASVKVSCKASGYSFTDYIMLWVRQAPGQRLEWIGDIYPYYGSTSYNLKFKGKATLTVDTSASTAYMELSSLRSEDTAVYYCARQGGDGNYVLFDYWGQGTLVTVSS
VL: DIQMTQSPSSLSASVGDRVTITCKASQNVGTTVAWYQQKPGKAPKALIYSASYRYSGVPSRFSGSGSGTDFTLTISSLQPEDFATYYCQQYNSYPFTFGQGTKLEIKR
[1]
  EC50: 0.025 µg/mL

B2: Hu1A9-2 (antibody, V domains shown)
VH: B1 VH
VL: B1 VL with A46V
[1]
  EC50: 0.016 µg/mL

B3: Ch1A9 (antibody, V domains shown)
VH: EIQLQQTGPELVKPGASVKISCKASGYSFTDYIMLWVKQSHGKSLEWIGDIYPYYGSTSYNLKFKGKATLTVDKSSSTAYMQLNSLTSEDSAVYYCARQGGDGNYVLFDYWGQGTTLTVSS
VL: DIVMTQSQKFMSTSVGDRVSVTCKASQNVGTTVAWYQQKPGQSPKALIYSASYRYSGVPDRFTGSGSGTDFTLTISNVQSEDLAEYFCQQYNSYPFTFGSGTKLEIKR
[1]
  EC50: 0.052 µg/mL
[2]
  Neutralization potency (IU/mg), FAVN: 533 IU/mg
  Neutralization potency (IU/mg), RFFIT: 1260 IU/mg

B4: Ch2G11 (antibody, V domains shown)
VH: EVQLVESGGGLVKPGGSLILSCAASGFTFSGFAMSWVRQTPEKRLEWVATISSGGTYTYSPDSVMGRFTISRDNAKNTLYLQMSSLRSEDTAMYYCARRLRRNYYSMDYWGQGTSVTVSS
VL: DVVLTQAPLSLPVNIGDQASISCKSTKSLLNSDGFTYLDWYLQKPGQSPQLLIYLVSNRFSGVPDRFSGSGSGTDFTLKISRVEAEDLGIYFCFQSNYLPFTFGSGTKLEIKR
[2]
  Neutralization potency (IU/mg), FAVN: 8310 IU/mg
  Neutralization potency (IU/mg), RFFIT: 1260 IU/mg
[3]
  IC50: 0.11 µg/mL
